± gives the standard deviation of the averaged measurements.
Legend:
[1] = system: VchCAST RNA-guided transposition machinery (E. coli BL21(DE3) host, lacZ target); test: relative integration efficiency (T-RL orientation) vs wild-type transposon end (log2 (normalized fold change)); transposon end mutated: left end; higher = more efficient transposition
Experimental: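 Pooled, barcoded VchCAST (Tn6677) mini-transposon donor libraries; each variable transposon-end sequence sits in a fixed pDonor mini-transposon context (10-bp barcode and cargo not included). Left- or right-end libraries were co-transformed with pEffector (TniQ-Cascade, TnsABC, lacZ crRNA, T7, 0.1 mM IPTG) into E. coli BL21(DE3) and grown 18 h at 37 C. T-LR and T-RL junction amplicons were sequenced; output/input barcode fold change was normalised to the mean of four wild-type barcodes and log2-transformed. Two biological replicates; zero-count/undetected variants carry floor values (-10 / -15), censored here. Barcode uncoupling by PCR recombination adds noise.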

[2] = system: VchCAST RNA-guided transposition machinery (E. coli BL21(DE3) host, lacZ target); test: relative integration efficiency (T-LR orientation) vs wild-type transposon end (log2 (normalized fold change)); transposon end mutated: right end (5 bp flank + 75 bp right end); higher = more efficient transposition
In short: (§1)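 A T7-driven effector plasmid encoding a CRISPR array, tniQ-cas8-cas7-cas6 and tnsA-tnsB-tnsC was co-transformed into E. coli BL21(DE3) together with a pUC57 mini-transposon donor holding barcoded pools of 1549 left-end or 1849 right-end variants. Transformants were plated with 0.1 mM IPTG at 37°C for 18 h. Illumina sequencing of PCR-amplified input plasmids and genomic integration junctions gave barcode abundances, and relative integration efficiency is their output/input fold change, normalised to reference barcodes and log-transformed.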

[3] = system: VchCAST RNA-guided transposition machinery (E. coli BL21(DE3) host, lacZ target); test: relative integration efficiency (T-RL orientation) vs wild-type transposon end (log2 (normalized fold change)); transposon end mutated: right end (5 bp flank + 75 bp right end); higher = more efficient transposition
In short: as §1

Sequence	relative integration efficiency (log2) [1]	relative integration efficiency (log2) [2]	relative integration efficiency (log2) [3]
AATGTTGTCAACCATAAAGTGATATTTAATAATTATTTATAATCAGCAACTTAACCACAAAACAACCATATATTGATATCTCACAAAACAACCATAAGTTGATATTTTTGTGAATCGAGTATTTCAGCAAAACTACTGCAGTAAGAAAGTTA	-8.1 ± 1.2		
AATGTTGTTCAACCATAAAGTGATATTTAATAATTATTTATAATCAGCAACTTAACCACAAAACAACCATATATTGATATCTCACAAAACAACCATAAGTTGATATTTTTGTGAATCGAGTATTTCAGCAAAACTACTGCAGTAAGAAAGTT	-7.77 ± 0.46		
AATGTTGTTGATGACCAACGCCTGGTCGCGGGGATAATTATTTATAATCAGCAACTTAACCACAAAAACCAACGCGCGGTCGCGAGAACAAAAACCAACGCCCTGTCGCGGGCTGTGAATCGAGTATTTCAGCAAAACTACTGCAGTAAGAA	< -10		
AATGTTGTTGATGACCAACGCCTGGTCGCGGGGATAATTATTTATAATCAGCAACTTAACCACAAAACAACCATATATTGATATCTCACAAAACAACCATAAGTTGATATTTTTGTGAATCGAGTATTTCAGCAAAACTACTGCAGTAAGAA	-8.86 ± 0.67		
ACATTTGTTTATACAACCATAAAATGATAATTACACCCATAAATTTATAATTATCACACCCAATTTAACTATAACGCTCTGATCATAGTCAGACCAACATTGCTACGACCCGTATTCGCACCGACAC		0.00132 ± 0.14	-1.89 ± 0.13
ACATTTGTTTATACAACCATAAAATGATAATTACACCCATAAATTTATTATTATCACACCCAATTTAACTATAACGCTCTGATCATAGTCAGACCAACATTGCTACGACCCGTATTCGCACCGACAC		-0.334 ± 0.058	-2.66 ± 0.6
ACATTTGTTTCGCCAACCATAAAATGATAATTACACCCATAAATTGATAATTATCACACCCATAAATTGATATTGCCTCTGATCATAGTCAGACCAACATTGCTACGACCCGTATTCGCACCGACAC		-3.75 ± 0.98	-1.72 ± 0.26
ACATTTGTTTCTACAACCATAAAATGATAATTACACCCATAAATTGATAATTATCACACCCATAAATTGATATTGCCTCTGATCATAGTCAGACCAACATTGCTACGACCCGTATTCGCACCGACAC		-3.43 ± 0.18	-1.06 ± 0.14
ACATTTTGGTATACAACCATAAAATGATAATTACACCCATAAATTGATAATTATCACACCCATAAATTGATATTGCCTCTGATCATAGTCAGACCAACATTGCTACGACCCGTATTCGCACCGACAC		-6.61 ± 2.1	-5.963 ± 0.038
ACATTTTGTGATACAACCATAAAATGATAATTACACCCATAAATTGATAATTATCACACCCATAAATTGATATTGCCTCTGATCATAGTCAGACCAACATTGCTACGACCCGTATTCGCACCGACAC		< -10	-6.54 ± 0.24
ACCGGGGTTGATACAACCATAAAATGATAATTACACCCATAAATTGATAATTATCACACCCATAAATTGATATTGCCTCTGATCATAGTCAGACCAACATTGCTACGACCCGTATTCGCACCGACAC		-5.64 ± 0.3	-6.81 ± 0.49
ACCGTTGTTGATACAACCATAAAATGATAATTACACCCATAAATTGATAATTATCACACCCATAAATTGATATTGCCTCTGATCATAGTCAGACCAACATTGCTACGACCCGTATTCGCACCGACAC		0.612 ± 0.13	-0.00193 ± 0.024
ACTAAAGTTGATACAACCATAAAATGATAATTACACCCATAAATTGATAATTATCACACCCATAAATTGATATTGCCTCTGATCATAGTCAGACCAACATTGCTACGACCCGTATTCGCACCGACAC		-4.99 ± 1.1	-6.65 ± 0.58
ACTATTGTTGATACAACCATAAAATGATAATTACACCCATAAATTGATAATTATCACACCCATAAATTGATATTGCCTCTGATCATAGTCAGACCAACATTGCTACGACCCGTATTCGCACCGACAC		0.436 ± 0.12	0.151 ± 0.07
AGTAATGTTGATACAACCATAAAATGATAATTACACCCATAAATTGATAATTATCACACCCATAAATTGATATTGCCTCTGATCATAGTCAGACCAACATTGCTACGACCCGTATTCGCACCGACAC		-0.0802 ± 0.26	-0.121 ± 0.05
AGTTTTGTTGATACAACCATAAAATGATAATTACACCCATAAATTGATAATTATCACACCCATAAATTGATATTGCCTCTGATCATAGTCAGACCAACATTGCTACGACCCGTATTCGCACCGACAC		0.122 ± 0.29	0.00539 ± 0.033
CAAAATGTAAAAAAAACCATACGTTGATTTTACCACCCATAAATTGATAATTAAAACAACCATACCTTGAAATTGCTTATAAAGTGTACAACACTTGAGAAAGTTTACTACAGGTATGCACCGACAC		-2.89 ± 0.71	-4.977 ± 0.011
CAAAATGTAAAAAAAACCATACGTTGATTTTACGAAACCATACGCTGAAATAAAAACAACCATACCTTGAAATTGCTTATGATCATAGTCAGACCAACATTGCTACGACCCGTATTCGCACCGACAC		-4.98 ± 2.3	-6.15 ± 0.21
CAAAATGTAAAAAAAACCATACGTTGATTTTACGAAACCATACGCTGAAATAAAAACACCCATAAATTGATATTGCTTATAAAGTGTACAACACTTGAGAAAGTTTACTACAGGTATGCACCGACAC		< -10	-8.17 ± 0.95
CAAAATGTAAAAAAAACCATACGTTGATTTTACGAAACCATACGCTGAAATAATCACAACCATACCTTGAAATTGCTTATAAAGTGTACAACACTTGAGAAAGTTTACTACAGGTATGCACCGACAC		< -10	< -10
CAAAATGTAAAAACAACCATAAAATGATAATTAGAAACCATACGCTGAAATAAAAACAACCATACCTTGAAATTGCTTATAAAGTGTACAACACTTGAGAAAGTTTACTACAGGTATGCACCGACAC		2.48 ± 0.26	-0.449 ± 0.47
CAAAATGTTGATACAACCATAAAATGATAATTACACCCATAAATTGATAATTATCACACCCATAAATTGATATTGCCTCTGATCATAGTCAGACCAACATTGCTACGACCCGTATTCGCACCGACAC		-0.0192 ± 0.23	-0.331 ± 0.081
CAATTTGTTGATACAACCATAAAATGATAATTACACCCATAAATTGATAATTATCACACCCATAAATTGATATTGCCTCTGATCATAGTCAGACCAACATTGCTACGACCCGTATTCGCACCGACAC		0.164 ± 0.0064	-0.1076 ± 0.00032
CACGGTGTTGATACAACCATAAAATGATAATTACACCCATAAATTGATAATTATCACACCCATAAATTGATATTGCCTCTGATCATAGTCAGACCAACATTGCTACGACCCGTATTCGCACCGACAC		0.107 ± 0.15	-0.141 ± 0.051
CACGTTGTTGATACAACCATAAAATGATAATTACACCCATAAATTGATAATTATCACACCCATAAATTGATATTGCCTCTGATCATAGTCAGACCAACATTGCTACGACCCGTATTCGCACCGACAC		0.451 ± 0.3	-0.27 ± 0.091
CGCGCTGTTGATACAACCATAAAATGATAATTACACCCATAAATTGATAATTATCACACCCATAAATTGATATTGCCTCTGATCATAGTCAGACCAACATTGCTACGACCCGTATTCGCACCGACAC		0.747 ± 0.2	0.101 ± 0.1
TATAATGTTGATACAACCATAAAATGATAATTACACCCATAAATTGATAATTATCACACCCATAAATTGATATTGCCTCTGATCATAGTCAGACCAACATTGCTACGACCCGTATTCGCACCGACAC		-0.134 ± 0.48	-0.277 ± 0.026
TGATTTGTTGATACAACCATAAAATGATAATTACACCCATAAATTGATAATTATCACACCCATAAATTGATATTGCCTCTGATCATAGTCAGACCAACATTGCTACGACCCGTATTCGCACCGACAC		0.163 ± 0.18	0.00782 ± 0.012
TGTAATGTTGATACAACCATAAAATGATAATTACACCCATAAATTGATAATTATCACACCCATAAATTGATATTGCCTCTGATCATAGTCAGACCAACATTGCTACGACCCGTATTCGCACCGACAC		-0.169 ± 0.51	-0.138 ± 0.063
TGTATTGTTGATACAACCATAAAATGATAATTACACCCATAAATTGATAATTATCACACCCATAAATTGATATTGCCTCTGATCATAGTCAGACCAACATTGCTACGACCCGTATTCGCACCGACAC		0.421 ± 0.14	-0.0404 ± 0.0046

Source: the supplement of paper PMC10201428
